# From US12180485B2, “Repressible control of gene expression” (TRUSTEES OF BOSTON UNIVERSITY, priority 2020, dated 2024)
# Tested on: mCherry expression in HEK293 FT cells
# Assay: Inducible split RfxCas13d (GIB, RAP, ABA, Dano, GRZ CID domains; NES/NLS variants) mCherry knockdown, leakiness and inducibility
# Assay type: cell-based
# Details: inducible polypeptide systems of Tables 18-22
# Text: FIG. 6A-6C is a series of schematics and graphs showing that split RfxCas13d's reconstituted and functioned to knockdown mCherry expression in HEK293 FT cells FIG. 6A is a schematic showing split sites selected throughout RfxCas13d sequence. FIG. 6B is a bar graph showing mCherry expression under 4 conditions for gibberellin-inducible, rapalog-inducible, and abscisic acid-inducible inducible split Cas13d designs. In FIG. 6B and FIG. 6C, the left-right order of the bars for each split site is the same as the left-right order of the legend for each bar graph.
# FIG. 7A-7E is a series of schematics and graphs showing a functional and inducible split Cas13d design. FIG. 7A is a bar graph showing additional split sites selected in RfxCas13d and tested with GIB CID domains. […] In FIG. 7A and FIG. 7C, the left-right order of the bars for each split site is the same as the left-right order of the legend. FIG. 7B is a schematic showing the design to compartmentalize splits. Compartmentalizing moieties facilitates the reduction of leakiness. […] FIG. 7D is a schematic showing the experiment flow for testing reversibility of the inducible split Cas13d's.
# FIG. 8A-8B is a series of schematics and graphs showing that split RfxCas13d's reconstituted upon drug-induced dimerization and knocked down mCherry expression in HEK293 FT cells. FIG. 8A is a bar graph showing quantification of system performance. The left-right order of the bars for each split site is the same as the top-down order of the legend. […] System performance in leakiness score (left axis) and induced activity (right axis) by GIB, RAP, ABA, and Dano-inducible split Cas13d designs.
# FIG. 10A-10B is a series of schematics and graphs showing performance optimization through separating split Cas13d moieties in different cellular compartments. […] The left-right order of the bars for each bar graph is the same as the top-down order of the legend.
# FIG. 11 is a series of schematics and graphs showing the testing of reversed orientation (dark grey dots) of CID domains with respect to split Cas13d pieces against original orientations (light grey dots) designed for GIB, ABA, Dano, and GRZ inducible systems.
row,Molecule,performance in the tested conditions
1,"SEQ ID NO: 810: inducible system polypeptide, probably Table 20 (GID-GAI) (protein) MIEKKKSFAKGMGVKSTLVSGSKVYMTTFAEGSDARLEKIVEGDSIRSVNEGEAFSAEMADKNAGYKIGNAKFSHPKGYAVVANNPLYTGPVQQDMLGLKETLEKRYFGESADGNDNICIQVIHNILDIEKILAEYITNAAYAVNNISGLDKDIIGFGKFSTVYTYDEFKDPEHHRAAFNNNDKLINAIKAQYDEFDNFLDNPRLGYFGQAFFSKEGRNYIINYGNECYDILALLSGLRHWVVHNNEEESRISRTWLYNLDKNLDNEYISTLNYLYDRITNELTNSFSKNSAANVNYIAETLGINPAEFAEQYFRFSIMKEQKNLGFNITKLREVMLDRKDMSEIRKNHKVFDSIRTKVYTMMDFVIYRYYIEEDAKVAAANKSLPDNEKSLSEKDIFVINLRGSFNDDQKDALYYDEANRIWRKLENIMHNIKEFRGNKTREYKKKDAPRLPRILPAGRDVSAFSKLMYALTMFLDGKEINDLLTTLINKFDNIQSFLKVMPLIGVNAKFVEEYAFFKDSAKIADELRLIKSFARMGEPIADARRAMYIDAIRILGTNLSGGSGSGSSGGSGTMKRDHHHHHHQDKKTMMMNEEDDGNGMDELLAVLGYKVRSSEMADVAQKLEQLEVMMSNVQEDDLSQLATETVHYNPAELYTWLDSMLTDLNPKKKRKV",highest performance
2,"SEQ ID NO: 813: inducible system polypeptide, probably Table 20 (GID-GAI) (protein) MAASDEVNLIESRTVVPLNTWVLISNFKVAYNILRRPDGTFNRHLAEYLDRKVTANANPVDGVFSFDVLIDRRINLLSRVYRPAYADQEQPPSILDLEKPVDGDIVPVILFFHGGSFAHSSANSAIYDTLCRRLVGLCKCVVVSVNYRRAPENPYPCAYDDGWIALNWVNSRSWLKSKKDSKVHIFLAGDSSGGNIAHNVALRAGESGIDVLGNILLNPMFGGNERTESEKSLDGKYFVTVRDRDWYWKAFLPEGEDREHPACNPFSPRGKSLEGVSFPKSLVVVAGLDLIRDWQLAYAEGLKKAGQEVKLMHLEKATVGFYLLPNNNHFHNVMDEISAFVNAECSGGSGSGSSGGSGTAKFVEEYAFFKDSAKIADELRLIKSFARMGEPIADARRAMYIDAIRILGTNLSYDELKALADTFSLDENGNKLKKGKHGMRNFIINNVISNKRFHYLIRYGDPAHLHEIAKNEAVVKFVLGRIADIQKKQGQNGKNQIDRYYETCIGKDKGKSVSEKVDALTKIITGMNYDQFDKKRSVIEDTGRENAEREKFKKIISLYLTVIYHILKNIVNINARYVIGFHCVERDAQLYKEKGYDINLKKLEEKGFSSVTKLCAGIDETAPDKRKDVEKEMAERAKESIDSLESANPKLYANYIKYSDEKKAEEFTRQINREKAKTALNAYLRNTKWNVIIREDLLRIDNKTCTLFRNKAVHLEVARYVHAYINDIAEVNSYFQLYHYIMQRIIMNERYEKSSGKVSEYFDAVNDEKKYNDRLLKLLCVPFGYCIPRFKNLSIEALFDRNEAAKFDKEKKKVSGNSGSGPKKKRKVPKKKRKV",highest performance
3,SEQ ID NO: 392: PV1-Cas13 N507-L1-PYL-NLS-BGHpA (protein) MIEKKKSFAKGMGVKSTLVSGSKVYMTTFAEGSDARLEKIVEGDSIRSVNEGEAFSAEMADKNAGYKIGNAKFSHPKGYAVVANNPLYTGPVQQDMLGLKETLEKRYFGESADGNDNICIQVIHNILDIEKILAEYITNAAYAVNNISGLDKDIIGFGKFSTVYTYDEFKDPEHHRAAFNNNDKLINAIKAQYDEFDNFLDNPRLGYFGQAFFSKEGRNYIINYGNECYDILALLSGLRHWVVHNNEEESRISRTWLYNLDKNLDNEYISTLNYLYDRITNELTNSFSKNSAANVNYIAETLGINPAEFAEQYFRFSIMKEQKNLGFNITKLREVMLDRKDMSEIRKNHKVFDSIRTKVYTMMDFVIYRYYIEEDAKVAAANKSLPDNEKSLSEKDIFVINLRGSFNDDQKDALYYDEANRIWRKLENIMHNIKEFRGNKTREYKKKDAPRLPRILPAGRDVSAFSKLMYALTMFLDGKEINDLLTTLINKFDNIQSFLKVMPLIGVNSGGSGSGSSGGSGTAPTQDEFTQLSQSIAEFHTYQLGNGRCSSLLAQRIHAPPETVWSVVRRFDRPQIYKHFIKSCNVSEDFEMRVGCTRDVNVISGLPANTSRERLDLLDDDRRVTGFSITGGEHRLRNYKSVTTVHRFEKEEEEERIWTVVLESYVVDVPEGNSEEDTRLFADTVIRLNLQKLASITEAMNYPYDVPDYAPKKKRKV,highest performance
4,"SEQ ID NO: 1206: inducible system polypeptide, probably Table 22 (reader and repressible protease) (protein) MAPKKKRKVGIHGVPAASSDEEEARELIERAKEAAERAQEAAERTGDPRVRELARELKRLAQEAAEEVKRDPSSSDVNEALKLIVEAIEAAVDALEAAERTGDPEVRELARELVRLAVEAAEEVQRNPSSSDVNEALHSIVYAIEAAIFALEAAERTGDPEVRELARELVRLAVEAAEEVQRNPSSRNVEHALMRIVLAIYLAEENLREAEESGDPEKREKARERVREAVERAEEVQRDPSGWLNHSGGSGSGSSGGSGTAKFVEEYAFFKDSAKIADELRLIKSFARMGEPIADARRAMYIDAIRILGTNLSYDELKALADTFSLDENGNKLKKGKHGMRNFIINNVISNKRFHYLIRYGDPAHLHEIAKNEAVVKFVLGRIADIQKKQGQNGKNQIDRYYETCIGKDKGKSVSEKVDALTKIITGMNYDQFDKKRSVIEDTGRENAEREKFKKIISLYLTVIYHILKNIVNINARYVIGFHCVERDAQLYKEKGYDINLKKLEEKGFSSVTKLCAGIDETAPDKRKDVEKEMAERAKESIDSLESANPKLYANYIKYSDEKKAEEFTRQINREKAKTALNAYLRNTKWNVIIREDLLRIDNKTCTLFRNKAVHLEVARYVHAYINDIAEVNSYFQLYHYIMQRIIMNERYEKSSGKVSEYFDAVNDEKKYNDRLLKLLCVPFGYCIPRFKNLSIEALFDRNEAAKFDKEKKKVSGNSGSGPKKKRKV",highest performance
5,SEQ ID NO: 391: PV1-ABI-L1-Cas13-508C-BGHpA (protein) MPLYGFTSICGRRPEMEDAVSTIPRFLQSSSGSMLDGRFDPQSAAHFFGVYDGHGGSQVANYCRERMHLALAEEIAKEKPMLCDGDTWLEKWKKALFNSFLRVDSEIGSVAPETVGSTSVVAVVFPSHIFVANCGDSRAVLCRGKTALPLSVDHKPDREDEAARIEAAGGKVIQWNGARVFGVLAMSRSIGDRYLKPSIIPDPEVTAVKRVKEDDCLILASDGVWDVMTDEEACEMARKRILLWHKKNAVAGDASLLADERRKEGKDPAAMSAAEYLSKLAIQRGSKDNISVVVVDLKDYKDDDDKSGGSGSGSSGGSGTAKFVEEYAFFKDSAKIADELRLIKSFARMGEPIADARRAMYIDAIRILGTNLSYDELKALADTFSLDENGNKLKKGKHGMRNFIINNVISNKRFHYLIRYGDPAHLHEIAKNEAVVKFVLGRIADIQKKQGQNGKNQIDRYYETCIGKDKGKSVSEKVDALTKIITGMNYDQFDKKRSVIEDTGRENAEREKFKKIISLYLTVIYHILKNIVNINARYVIGFHCVERDAQLYKEKGYDINLKKLEEKGFSSVTKLCAGIDETAPDKRKDVEKEMAERAKESIDSLESANPKLYANYIKYSDEKKAEEFTRQINREKAKTALNAYLRNTKWNVIIREDLLRIDNKTCTLFRNKAVHLEVARYVHAYINDIAEVNSYFQLYHYIMQRIIMNERYEKSSGKVSEYFDAVNDEKKYNDRLLKLLCVPFGYCIPRFKNLSIEALFDRNEAAKFDKEKKKVSGNSGSGPKKKRKVPKKKRKV,highest performance
6,"SEQ ID NO: 814: inducible system polypeptide, probably Table 20 (GID-GAI) (protein) MIEKKKSFAKGMGVKSTLVSGSKVYMTTFAEGSDARLEKIVEGDSIRSVNEGEAFSAEMADKNAGYKIGNAKFSHPKGYAVVANNPLYTGPVQQDMLGLKETLEKRYFGESADGNDNICIQVIHNILDIEKILAEYITNAAYAVNNISGLDKDIIGFGKFSTVYTYDEFKDPEHHRAAFNNNDKLINAIKAQYDEFDNFLDNPRLGYFGQAFFSKEGRNYIINYGNECYDILALLSGLRHWVVHNNEEESRISRTWLYNLDKNLDNEYISTLNYLYDRITNELTNSFSKNSAANVNYIAETLGINPAEFAEQYFRFSIMKEQKNLGFNITKLREVMLDRKDMSEIRKNHKVFDSIRTKVYTMMDFVIYRYYIEEDAKVAAANKSLPDNEKSLSEKDIFVINLRGSFNDDQKDALYYDEANRIWRKLENIMHNIKEFRGNKTREYKKKDAPRLPRILPAGRDVSAFSKLMYALTMFLDGKEINDLLTTLINKFDNIQSFLKVMPLIGVNSGGSGSGSSGGSGTMKRDHHHHHHQDKKTMMMNEEDDGNGMDELLAVLGYKVRSSEMADVAQKLEQLEVMMSNVQEDDLSQLATETVHYNPAELYTWLDSMLTDLNPKKKRKV",highest performance
